How the values were obtained:
[1] = target: HLA-B*07:02; assay: IEDB peptide-MHC binding, purified MHC/competitive/radioactivity; filed as Kd, often an IC50 or EC50 that approximates it; ≥ and ≤ were set here for values at or beyond the usual limits of such assays
[2] = target: HLA-B*35:01; assay: as above
[3] = target: HLA-B*51:01; assay: as above
[4] = target: HLA-B*53:01; assay: as above
[5] = target: HLA-B*54:01; assay: as above
[6] = target: HLA-A*68:02; assay: as above
[7] = target: HLA-A*02:06; assay: as above
[8] = target: HLA-A*02:02; assay: as above
[9] = target: HLA-A*02:01; assay: IEDB peptide-MHC binding, purified MHC/competitive/fluorescence; filed as Kd, often an IC50 or EC50 that approximates it; ≥ and ≤ were set here for values at or beyond the usual limits of such assays; settings: source organism: Variola virus
[10] = target: HLA-A*02:03; assay: IEDB peptide-MHC binding, purified MHC/competitive/radioactivity; filed as Kd, often an IC50 or EC50 that approximates it; ≥ and ≤ were set here for values at or beyond the usual limits of such assays
[11] = target: HLA-A*03:01; assay: as above; settings: source organism: Vaccinia virus Copenhagen
[12] = target: HLA-A*11:01; assay: as above; settings: source organism: Vaccinia virus Copenhagen
[13] = target: HLA-A*31:01; assay: as above; settings: source organism: Vaccinia virus Copenhagen
[14] = target: HLA-A*33:01; assay: as above; settings: source organism: Vaccinia virus Copenhagen
[15] = target: HLA-A*68:01; assay: as above; settings: source organism: Vaccinia virus Copenhagen
[16] = target: HLA-B*08:01; assay: as above
[17] = target: HLA-B*18:01; assay: as above
[18] = target: HLA-B*40:01; assay: as above
[19] = target: HLA-B*40:02; assay: as above
[20] = target: HLA-B*44:02; assay: as above
[21] = target: HLA-B*44:03; assay: as above
[22] = target: HLA-B*45:01; assay: as above
[23] = target: HLA-B*15:01; assay: as above; settings: source organism: Vaccinia virus WR
[24] = source organism: SARS coronavirus Tor2
[25] = source organism: Mammarenavirus brazilense
[26] = source organism: Dengue virus 4 Philippines/H241/1956
[27] = source organism: Vaccinia virus Copenhagen
[28] = source organism: Vaccinia virus WR
[29] = source organism: Mammarenavirus juninense
[30] = source organism: Lassa virus Josiah
[31] = source organism: Mammarenavirus lassaense
[32] = source organism: Dengue virus 2 Jamaica/1409/1983
[33] = source organism: Lymphocytic choriomeningitis virus (strain Armstrong)

With APATVCGPKL the Kd [1, 24] was 0.0304 µM, the Kd [2, 24] was ≥ 69.9 µM and the Kd [3, 24] was 7.07 µM. For the same sequence, the Kd [4, 24] was ≥ 50 µM and the Kd [5, 24] was ≥ 69.9 µM.
In the case of APFMSDLQF, the Kd [1, 25] is reported as 0.148 µM, the Kd [2, 25] is reported as 0.00755 µM and the Kd [3, 25] is reported as ≥ 39.3 µM. The Kd [4, 25] was 0.0319 µM and the Kd [5, 25] was ≥ 36.3 µM.
For EIASLPTYL, the Kd [6, 26] was 0.00791 µM.
In the case of ELEKTRRKL, the Kd ([7]; source organism: Homo sapiens) is reported as ≥ 45.2 µM and the Kd ([6]; source organism: Homo sapiens) is reported as 6.99 µM.
For ELNDRFANYI, the Kd ([8]; source organism: Homo sapiens) was 0.0376 µM and the Kd ([6]; source organism: Homo sapiens) was 0.0116 µM.
In the case of FLTSVINRV, the Kd [9] is reported as 0.0035 µM, the Kd [8, 27] is reported as 0.00166 µM and the Kd [10, 27] is reported as 0.00563 µM. The Kd [11] was ≥ 78 µM, the Kd [12] was ≥ 77.9 µM and the Kd [13] was ≥ 77.9 µM. For the same sequence, the Kd [14] was ≥ 77.7 µM, the Kd [15] was 9.6 µM and the Kd [1, 27] was ≥ 77.5 µM. The Kd [2, 27] was 19 µM, the Kd [3, 27] was ≥ 37.2 µM and the Kd [4, 27] was ≥ 61 µM. It also gave a Kd [5, 27] of 0.904 µM.
FPANINDKQI showed a Kd [1, 28] of 0.468 µM, a Kd [2, 28] of 0.384 µM and a Kd [3, 28] of 0.145 µM. For the same sequence, the Kd [4, 28] was 0.00877 µM and the Kd [5, 28] was 0.0138 µM.
FPLCANGQVF was tested, and the Kd [1, 24] was 0.0871 µM, the Kd [2, 24] was 0.00184 µM and the Kd [3, 24] was 0.0106 µM. For the same sequence, the Kd [4, 24] was 0.00194 µM and the Kd [5, 24] was 0.358 µM.
With GIRPRFLSQ the Kd [16, 27] was 0.221 µM.
HDWHLDPPF was tested, and the Kd [17, 29] was 2.39 µM, the Kd [18, 29] was ≥ 72 µM and the Kd [19, 29] was 0.0221 µM. For the same sequence, the Kd [20, 29] was 18.5 µM, the Kd [21, 29] was 7.96 µM and the Kd [22, 29] was ≥ 77.7 µM.
With HESFDLAGLF the Kd [17, 29] was 1.14 µM, the Kd [18, 29] was 1.98 µM and the Kd [19, 29] was 0.435 µM. It also gave a Kd [20, 29] of 0.175 µM, a Kd [21, 29] of 0.776 µM and a Kd [22, 29] of 1.76 µM.
For IISTFHLSI, the Kd [8, 30] was 0.236 µM, the Kd [10, 30] was 0.0139 µM and the Kd [7, 30] was 0.264 µM. It also gave a Kd [6, 30] of 0.652 µM.
With IMAVGLVSLL the Kd [16, 26] was 0.863 µM.
In the case of IPDELIDVL, the Kd [1, 28] is reported as 0.373 µM, the Kd [2, 28] is reported as 0.256 µM and the Kd [3, 28] is reported as 2.18 µM. It also gave a Kd [4, 28] of 0.458 µM and a Kd [5, 28] of 12.3 µM.
With IPFNVVTAM the Kd [1, 31] was 0.0185 µM, the Kd [2, 31] was 0.00525 µM and the Kd [3, 31] was 4.23 µM. For the same sequence, the Kd [4, 31] was 0.0739 µM and the Kd [5, 31] was 0.504 µM.
Work on ITASILLWYA yielded a Kd [7, 32] of 0.00198 µM and a Kd [6, 32] of 0.0124 µM.
With KDCVMYASAL the Kd [17, 24] was ≥ 70.5 µM, the Kd [18, 24] was ≥ 60.5 µM and the Kd [19, 24] was 3.29 µM. The Kd [20, 24] was 10.7 µM, the Kd [21, 24] was 11.9 µM and the Kd [22, 24] was ≥ 70 µM.
Work on KDLQRLRSL yielded a Kd [17, 33] of 5.86 µM, a Kd [18, 33] of 4.49 µM and a Kd [19, 33] of 0.165 µM. For the same sequence, the Kd [20, 33] was ≥ 43.6 µM, the Kd [21, 33] was ≥ 66 µM and the Kd [22, 33] was ≥ 43.1 µM.
In the case of KPESRPFDLI, the Kd [1, 28] is reported as 1.38 µM, the Kd [2, 28] is reported as ≥ 69.9 µM and the Kd [3, 28] is reported as ≥ 69.6 µM. The Kd [4, 28] was 18.6 µM and the Kd [5, 28] was 18.5 µM.
In the case of LLKPRCNPA, the Kd [16, 28] is reported as 0.00116 µM and the Kd [23] is reported as 0.0206 µM.
Work on LPDDFMGCVL yielded a Kd [1, 24] of 0.105 µM, a Kd [2, 24] of 0.353 µM and a Kd [3, 24] of 0.0984 µM. The Kd [4, 24] was 0.499 µM and the Kd [5, 24] was 5.49 µM.
LPVNVAFEL was tested, and the Kd [2, 24] was 0.00189 µM, the Kd [3, 24] was 0.00114 µM and the Kd [4, 24] was 0.0104 µM. The Kd [5, 24] was 0.42 µM.
With MEKLRIKGM the Kd [16, 26] was 0.0208 µM and the Kd [20, 26] was 1.26 µM.

From the Immune Epitope Database (IEDB)
